The text below walks through data of the supplement of paper PMC5998384.

The subject of data set [1] is HeLa Kyoto. The data set is described as follows: thermal stability score vs G1/S (z-score of summed log2 fold changes over temperatures); higher = more thermally stable than in G1/S.
The subject of data set [2] is HeLa Kyoto. Nature of the data set: solubility change mitosis vs G1/S (difference of NP-40 vs SDS log2 ratios) (log2 ratio difference); higher = more soluble in mitosis.
Data set [3] has as its system HeLa Kyoto. Nature of the data set: melting temperature (median over replicates), in situ; higher = more thermally stable.
The subject of data set [4] is HeLa Kyoto. The data set is described as follows: solubility in G1/S (NP-40 vs SDS abundance) (log2 ratio); higher = more soluble. The conditions noted are these: cell cycle stage: G1/S.
Where [5] appears, read: cell cycle stage: early G1 (4.5 h after nocodazole release).
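For melting temperature (median over replicates), in situ in this document: HeLa Kyoto cells synchronized by double thymidine or nocodazole block, proteins quantified by TMT10plex mass spectrometry, three independent biological replicates.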
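For solubility change mitosis vs G1/S (difference of NP-40 vs SDS log2 ratios) in this document: synchronized HeLa Kyoto cells (double thymidine block for G1/S, nocodazole release for mitosis), protein amounts in NP-40 versus SDS lysates quantified by mass spectrometry, three biological replicates.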
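For solubility in G1/S (NP-40 vs SDS abundance) in this document: HeLa Kyoto cells arrested at G1/S by double thymidine block, proteins quantified by TMT10plex mass spectrometry in mild NP-40 versus SDS extracts, three biological replicates.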
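For thermal stability score vs G1/S (z-score of summed log2 fold changes over temperatures) in this document: synchronized HeLa Kyoto cells, proteins quantified by TMT10plex mass spectrometry, three biological replicates, mitosis taken 0.5 h after nocodazole release, G1/S directly after double thymidine block.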

“MEFSGRKWRKLRLAGDQRNASYPHCLQFYLQPPSENISLIEFENLAIDRVKLLKSVENLGVSYVKGTEQYQSKLESELRKLKFSYRENLEDEYEPRRRDHISHFILRLAYCQSEELRRWFIQQEMDLLRFRFSILPKDKIQDFLKDSQLQFEAISDEEKTLREQEIVASSPSLSGLKLGFESIYKIPFADALDLFRGRKVYLEDGFAYVPLKDIVAIILNEFRAKLSKALALTARSLPAVQSDERLQPLLNHLSHSYTGQDYSTQGNVGKISLDQIDLLSTKSFPPCMRQLHKALRENHHLRHGGRMQYGLFLKGIGLTLEQALQFWKQEFIKGKMDPDKFDKGYSYNIRHSFGKEGKRTDYTPFSCLKIILSNPPSQGDYHGCPFRHSDPELLKQKLQSYKISPGGISQILDLVKGTHYQVACQKYFEMIHNVDDCGFSLNHPNQFFCESQRILNGGKDIKKEPIQPETPQPKPSVQKTKDASSALASLNSSLEMDMEGLEDYFSEDS [PRIM2]”: the figures for the thermal stability score in the data set with HeLa Kyoto [1] (setting [5]) and in the data set on HeLa Kyoto [1] (cell cycle stage: mitosis) were 0.648 and 2.05, respectively. Further, in the data set with HeLa Kyoto [2], the “solubility change mitosis (log2)” value is -0.116. In addition, the figures for the melting temperature in the data set on HeLa Kyoto [3] (cell cycle stage: G1/S) and with HeLa Kyoto [3] (cell cycle stage: mitosis) were 48.9 °C and 49 °C, respectively. In addition, the “solubility in G1/S (log2)” value in the data set with HeLa Kyoto [4] amounted to 0.23.

Regarding “MNTADQARVGPADDGPAPSGEEEGEGGGEAGGKEPAADAAPGPSAAFRLMVTRREPAVKLQYAVSGLEPLAWSEDHRVSVSTARSIAVLELICDVHNPGQDLVIHRTSVPAPLNSCLLKVGSKTEVAECKEKFAASKDPTVSQTFMLDRVFNPEGKALPPMRGFKYTSWSPMGCDANGRCLLAALTMDNRLTIQANLNRLQWVQLVDLTEIYGERLYETSYRLSKNEAPEGNLGDFAEFQRRHSMQTPVRMEWSGICTTQQVKHNNECRDVGSVLLAVLFENGNIAVWQFQLPFVGKESISSCNTIESGITSPSVLFWWEYEHNNRKMSGLIVGSAFGPIKILPVNLKAVKGYFTLRQPVILWKEMDQLPVHSIKCVPLYHPYQKCSCSLVVAARGSYVFWCLLLISKAGLNVHNSHVTGLHSLPIVSMTADKQNGTVYTCSSDGKVRQLIPIFTDVALKFEHQLIKLSDVFGSVRTHGIAVSPCGAYLAIITTEGMINGLHPVNKNYQVQFVTLKTFEEAAAQLLESSVQNLFKQVDLIDLVRWKILKDKHIPQFLQEALEKKIESSGVTYFWRFKLFLLRILYQSMQKTPSEALWKPTHEDSKILLVDSPGMGNADDEQQEEGTSSKQVVKQGLQERSKEGDVEEPTDDSLPTTGDAGGREPMEEKLLEIQGKIEAVEMHLTREHMKRVLGEVYLHTWITENTSIPTRGLCNFLMSDEEYDDRTARVLIGHISKKMNKQTFPEHCSLCKEILPFTDRKQAVCSNGHIWLRCFLTYQSCQSLIYRRCLLHDSIARHPAPEDPDWIKRLLQSPCPFCDSPVF [GTF3C4]”, the thermal stability score in the data set on HeLa Kyoto [1] (setting [5]) came out at 1.42; in the data set with HeLa Kyoto [1] (cell cycle stage: mitosis) it was 3.08. In addition, the “solubility change mitosis (log2)” value in the data set on HeLa Kyoto [2] was -0.0904. For the same sequence, the melting temperature came to 49.4 °C with HeLa Kyoto [3] (cell cycle stage: G1/S) and 49.9 °C in the data set with HeLa Kyoto [3] (cell cycle stage: mitosis). In addition, the “solubility in G1/S (log2)” value in the data set on HeLa Kyoto [4] was -0.0178.

For the sequence “MASLSLAPVNIFKAGADEERAETARLTSFIGAIAIGDLVKSTLGPKGMDKILLSSGRDASLMVTNDGATILKNIGVDNPAAKVLVDMSRVQDDEVGDGTTSVTVLAAELLREAESLIAKKIHPQTIIAGWREATKAAREALLSSAVDHGSDEVKFRQDLMNIAGTTLSSKLLTHHKDHFTKLAVEAVLRLKGSGNLEAIHIIKKLGGSLADSYLDEGFLLDKKIGVNQPKRIENAKILIANTGMDTDKIKIFGSRVRVDSTAKVAEIEHAEKEKMKEKVERILKHGINCFINRQLIYNYPEQLFGAAGVMAIEHADFAGVERLALVTGGEIASTFDHPELVKLGSCKLIEEVMIGEDKLIHFSGVALGEACTIVLRGATQQILDEAERSLHDALCVLAQTVKDSRTVYGGGCSEMLMAHAVTQLANRTPGKEAVAMESYAKALRMLPTIIADNAGYDSADLVAQLRAAHSEGNTTAGLDMREGTIGDMAILGITESFQVKRQVLLSAAEAAEVILRVDNIIKAAPRKRVPDHHPC [CCT2]”, the figures for the thermal stability score in the data set on HeLa Kyoto [1] (setting [5]) and with HeLa Kyoto [1] (cell cycle stage: mitosis) were -0.324 and -1.07, respectively. Also, the “solubility change mitosis (log2)” value in the data set with HeLa Kyoto [2] is -0.0739. The results for the melting temperature with HeLa Kyoto [3] (cell cycle stage: G1/S) and with HeLa Kyoto [3] (cell cycle stage: mitosis) were 54.1 °C and 53.1 °C, respectively. The “solubility in G1/S (log2)” value in the data set on HeLa Kyoto [4] stood at 0.193.

Take “MDPQRSPLLEVKGNIELKRPLIKAPSQLPLSGSRLKRRPDQMEDGLEPEKKRTRGLGATTKITTSHPRVPSLTTVPQTQGQTTAQKVSKKTGPRCSTAIATGLKNQKPVPAVPVQKSGTSGVPPMAGGKKPSKRPAWDLKGQLCDLNAELKRCRERTQTLDQENQQLQDQLRDAQQQVKALGTERTTLEGHLAKVQAQAEQGQQELKNLRACVLELEERLSTQEGLVQELQKKQVELQEERRGLMSQLEEKERRLQTSEAALSSSQAEVASLRQETVAQAALLTEREERLHGLEMERRRLHNQLQELKGNIRVFCRVRPVLPGEPTPPPGLLLFPSGPGGPSDPPTRLSLSRSDERRGTLSGAPAPPTRHDFSFDRVFPPGSGQDEVFEEIAMLVQSALDGYPVCIFAYGQTGSGKTFTMEGGPGGDPQLEGLIPRALRHLFSVAQELSGQGWTYSFVASYVEIYNETVRDLLATGTRKGQGGECEIRRAGPGSEELTVTNARYVPVSCEKEVDALLHLARQNRAVARTAQNERSSRSHSVFQLQISGEHSSRGLQCGAPLSLVDLAGSERLDPGLALGPGERERLRETQAINSSLSTLGLVIMALSNKESHVPYRNSKLTYLLQNSLGGSAKMLMFVNISPLEENVSESLNSLRFASKVNQCVIGTAQANRK [KIFC1]”: the thermal stability score in the data set on HeLa Kyoto [1] (setting [5]) came to 3.16; in the data set on HeLa Kyoto [1] (cell cycle stage: mitosis) it was 4.4. Further, the “solubility change mitosis (log2)” value in the data set with HeLa Kyoto [2] worked out at 0.12. The melting temperature is 47.4 °C with HeLa Kyoto [3] (cell cycle stage: G1/S) and 48.8 °C with HeLa Kyoto [3] (cell cycle stage: mitosis). Moreover, the “solubility in G1/S (log2)” value with HeLa Kyoto [4] was 0.0107.
